Experimental data as given in patent US20200062863A1 (CSL BEHRING, published 2020).
Where a chain is given by its changes, count along the chain named. Read-outs that look alike come from different tables or passages of the source. Values belong to the molecule of their own block, whether it stands above or below them.

Legend:
human FXIIa [1] = target: T1, human FXIIa (human, UniProt P00748 20-615, limits assumed)
T1 sequence: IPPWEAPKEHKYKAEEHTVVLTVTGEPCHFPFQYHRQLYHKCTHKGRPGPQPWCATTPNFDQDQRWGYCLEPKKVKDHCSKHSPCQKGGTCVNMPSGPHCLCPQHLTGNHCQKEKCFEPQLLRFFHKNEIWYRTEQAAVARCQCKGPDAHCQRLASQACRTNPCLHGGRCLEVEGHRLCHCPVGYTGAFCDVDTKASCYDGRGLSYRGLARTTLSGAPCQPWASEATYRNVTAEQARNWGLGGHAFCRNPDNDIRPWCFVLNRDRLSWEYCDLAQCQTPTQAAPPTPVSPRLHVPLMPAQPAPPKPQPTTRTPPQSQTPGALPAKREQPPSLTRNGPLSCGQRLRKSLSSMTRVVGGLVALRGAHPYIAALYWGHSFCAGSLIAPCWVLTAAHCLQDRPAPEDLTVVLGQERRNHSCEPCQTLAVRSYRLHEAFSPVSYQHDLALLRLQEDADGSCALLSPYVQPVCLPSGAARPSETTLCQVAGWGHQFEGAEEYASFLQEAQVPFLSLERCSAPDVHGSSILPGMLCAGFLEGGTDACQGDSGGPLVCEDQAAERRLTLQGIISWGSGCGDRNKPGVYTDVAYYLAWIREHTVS

human Factor XIIa-alpha = target: T2, human Factor XIIa-alpha (human, UniProt P00748 20-615); experiment: cell-based or functional assay
T2 sequence: T1 sequence

human FXIIa [2] = target: T1, human FXIIa; experiment: competition phage ELISA on plate-coated FXIIa; competed binder: 3F7 Fab-phage at a fixed amount
human FXIIa [3] = target: T1, human FXIIa; experiment: competition phage ELISA on plate-coated FXIIa; competed binder: 3H4 Fab-phage at a fixed amount
human FXIIa [4] = target: T1, human FXIIa; experiment: competition phage ELISA on plate-coated FXIIa; competed binder: Inf4-phage (pTacInf4) at a fixed amount
human Factor XIIa-beta [5] = target: T3, human Factor XIIa-beta (human, UniProt P00748 354-615, limits assumed); experiment: SPR (Biacore A100), unpurified IgG4 supernatant captured on anti-human IgG, single FXIIa beta concentration (100 nM), 37 C, 1:1 fit; estimated
T3 construct: Bought from Enzyme Research Laboratories; also called FXIIa beta; FXIIa-beta
T3 sequence: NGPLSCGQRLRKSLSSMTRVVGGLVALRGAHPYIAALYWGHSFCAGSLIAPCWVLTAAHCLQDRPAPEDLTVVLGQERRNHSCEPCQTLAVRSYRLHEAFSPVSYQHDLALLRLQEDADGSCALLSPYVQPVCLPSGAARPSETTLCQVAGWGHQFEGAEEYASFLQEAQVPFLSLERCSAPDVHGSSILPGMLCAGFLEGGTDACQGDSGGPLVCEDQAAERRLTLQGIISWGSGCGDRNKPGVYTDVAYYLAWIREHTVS
Method: Anti-human (Goat anti-human IgG (gamma) mouse adsorbed, Invitrogen, Cat No. H10500) was chemically immobilised on a CM-5 sensor surface using amine coupling chemistry. Culture supernatants were diluted 1/60 with running buffer before capture. Antibodies were captured for 180 seconds representing an average capture of 800 response units (RU). FXIIa beta was then injected at zero and 100 nM for 180 seconds, and dissociated for 180 seconds. All assays were conducted on a Biacore A100 instrument at 37 degrees Celsius and the data fitted to a 1:1 kinetic model.

human Factor XIIa-beta [6] = target: T3, human Factor XIIa-beta; experiment: SPR (Biacore), KD against parental 3F7
human Factor XIIa-beta [7] = target: T3, human Factor XIIa-beta; experiment: SPR (Biacore), purified IgG4 captured on anti-human IgG, FXIIa beta 0-40 nM, 1:1 fit, 25 C

Molecule: rHA-Infestin-4 (recombinant Infestin-4 fused to human albumin)
IC50 (read off the curve) (human FXIIa [1]): 9 nM
% Inhibition, ratio FXIIa-alpha:inhibitor 1:1 (human Factor XIIa-alpha): 90%
IC50 (read off the curve) (human FXIIa [2]): 5 nM
IC50 (read off the curve) (human FXIIa [3]): 5 nM
IC50 (read off the curve) (human FXIIa [4]): 3 nM

B1: VR63 (antibody, V domains shown)
VH: EVQLLESGGGLVQPGGSLRLSCAASGFTFSKYIMQWVRQAPGKGLEWVSGIRPSGGTTVYADSVKGRFTISRDNSKNTLYLQMNSLRAEDTAVYYCARALPRSGYLISPHYYYYALDVWGQGTTVTVSS
VL: QSELTQPPSASGTPGQRVTISCSGSSSNIGRNYVYWYQQVPGTAPKLLIYSNNQRPSGVPDRFSGSKSGTSASLVISGLRSEDEADYYCAAWDNQVRLGFGGGTKLTVLG
notes: Libraries were built on germline stop templates, so frameworks may differ
Kd (human Factor XIIa-beta [5]): 8.3 nM

B2: VR99 (antibody, V domains shown)
VH: B1 VH with R52N, S54A, G55T, G56M
VL: B1 VL with N94A, Q95S, V96L, L98G, G99V
notes: as for B1
Kd (human Factor XIIa-beta [5]): 9.19 nM

B7: VR109 (antibody, V domains shown)
VH: B1 VH with R52N, S54A, G55T, G56N
VL: B1 VL with N94A, Q95S, V96L, L98G, G99V
notes: as for B1
Kd (human Factor XIIa-beta [5]): 5.98 nM

B12: VR148 (antibody, V domains shown)
VH: B1 VH with I107V, S108K, P109K, H110Q
VL: B1 VL with N94A, Q95S, V96L, L98G, G99V
notes: as for B1
Kd (human Factor XIIa-beta [5]): 6.93 nM

B14: VR159 (antibody, V domains shown)
VH: B1 VH with I107V, S108K, P109H, H110G
VL: B1 VL with N94A, Q95S, V96L, L98G, G99V
notes: as for B1
Kd (human Factor XIIa-beta [5]): 6.93 nM

B15: VR160 (antibody, V domains shown)
VH: B1 VH with I107M, S108K, H110G
VL: B1 VL with N94A, Q95S, V96L, L98G, G99V
notes: as for B1
Kd (human Factor XIIa-beta [5]): 7.13 nM

B16: VR167 (antibody, V domains shown)
VH: B1 VH with I107M, S108K, P109T, H110G
VL: B1 VL with N94A, Q95S, V96L, L98G, G99V
notes: as for B1
Kd (human Factor XIIa-beta [5]): 5.8 nM

B18: VR62 (antibody, V domains shown)
VH: B1 VH
VL: QSVLTQPPSASGTPGQRVTISCSGSSSNIGRNYVYWYQQLPGTAPKLLIYSNNQRPSGVPDRFSGSKSGTSASLAISGLRSEDEADYYCAAWDQQVRLDFGGGTKLTVL
notes: as for B1
Kd (human Factor XIIa-beta [5]): 5.81 nM

B19: VR14 (antibody, V domains shown)
VH: B1 VH
VL: B18 VL with S27G, N28M, I29V, G30E, R31Q, Q94A, Q95S, V96L, L98G, D99V
notes: as for B1
Kd (human Factor XIIa-beta [5]): 6.22 nM

B21: VR46 (antibody, V domains shown)
VH: B1 VH
VL: B18 VL with A91S, D93E, Q94L, Q95P, V96L, L98G, D99V
notes: as for B1
Kd (human Factor XIIa-beta [5]): 6.67 nM

B22: VR52 (antibody, V domains shown)
VH: B1 VH
VL: B18 VL with Q94E, Q95R, D99M
notes: as for B1
Kd (human Factor XIIa-beta [5]): 7.1 nM

B23: VR53 (antibody, V domains shown)
VH: B1 VH
VL: B18 VL with L98K, D99T
notes: as for B1
Kd (human Factor XIIa-beta [5]): 7.05 nM

Continued by falling Kd (human Factor XIIa-beta [5]), values first:

Kd (human Factor XIIa-beta [5]): 5.63 nM
B20: VR39 (antibody, V domains shown)
VH: B1 VH
VL: B18 VL with A91S, D93W, Q94N, Q95D, V96L, L98G, D99V
notes: as for B1

Kd (human Factor XIIa-beta [5]): 5.33 nM
B24: VR58 (antibody, V domains shown)
VH: B1 VH
VL: B18 VL with Q94P, D99A
notes: as for B1

Kd (human Factor XIIa-beta [5]): 5.12 nM
B13: VR149 (antibody, V domains shown)
VH: B1 VH with I107M, S108K, P109K, H110N
VL: B1 VL with N94A, Q95S, V96L, L98G, G99V
notes: as for B1

Kd (human Factor XIIa-beta [5]): 3.33 nM
B3: VR101 (antibody, V domains shown)
VH: B1 VH with R52N, S54A, G55T, G56R, T57S
VL: B1 VL with N94A, Q95S, V96L, L98G, G99V
notes: as for B1

Kd (human Factor XIIa-beta [5]): 2.87 nM
B4: VR103 (antibody, V domains shown)
VH: B1 VH with R52D, P53V, S54P, G55V, G56R, T57G
VL: B1 VL with N94A, Q95S, V96L, L98G, G99V
notes: as for B1

Kd (human Factor XIIa-beta [5]): 2.81 nM
B6: VR108 (antibody, V domains shown)
VH: B1 VH with R52N, S54A, G55T, G56K
VL: B1 VL with N94A, Q95S, V96L, L98G, G99V
notes: as for B1

Kd (human Factor XIIa-beta [5]): 2.45 nM
B5: VR107 (antibody, V domains shown)
VH: B1 VH with R52N, S54A, G55T, G56R
VL: B1 VL with N94A, Q95S, V96L, L98G, G99V
notes: as for B1

% Inhibition, ratio FXIIa-alpha:Antibody 1:0.1 (human Factor XIIa-alpha): 33.7%
% Inhibition, ratio FXIIa-alpha:Antibody 1:0.2 (human Factor XIIa-alpha): 66.9%
% Inhibition, ratio FXIIa-alpha:Antibody 1:0.5 (human Factor XIIa-alpha): 100%
% Inhibition, ratio FXIIa-alpha:Antibody 1:1 (human Factor XIIa-alpha): 100%
% Inhibition, ratio FXIIa-alpha:Antibody 1:2 (human Factor XIIa-alpha): 100%
% Inhibition, ratio FXIIa-alpha:Antibody 1:5 (human Factor XIIa-alpha): 100%
% Inhibition, ratio FXIIa-alpha:Antibody 1:10 (human Factor XIIa-alpha): 100%
Fold affinity improvement (human Factor XIIa-beta [6]): 25 fold
Kd (human Factor XIIa-beta [7]): 0.35 nM
koff (human Factor XIIa-beta [7]): 3.9e-05 s⁻¹
kon (human Factor XIIa-beta [7]): 110000 M⁻¹ s⁻¹
Kd (human Factor XIIa-beta [5]): 2.04 nM
B8: VR110 (antibody, V domains shown)
VH: B1 VH with R52D, P53M, S54P, G55T, G56K, T57G
VL: B1 VL with N94A, Q95S, V96L, L98G, G99V

% Inhibition, ratio FXIIa-alpha:Antibody 1:0.1 (human Factor XIIa-alpha): 34.5%
% Inhibition, ratio FXIIa-alpha:Antibody 1:0.2 (human Factor XIIa-alpha): 67.3%
% Inhibition, ratio FXIIa-alpha:Antibody 1:0.5 (human Factor XIIa-alpha): 99.7%
% Inhibition, ratio FXIIa-alpha:Antibody 1:1 (human Factor XIIa-alpha): 100%
% Inhibition, ratio FXIIa-alpha:Antibody 1:2 (human Factor XIIa-alpha): 100%
% Inhibition, ratio FXIIa-alpha:Antibody 1:5 (human Factor XIIa-alpha): 100%
% Inhibition, ratio FXIIa-alpha:Antibody 1:10 (human Factor XIIa-alpha): 100%
Fold affinity improvement (human Factor XIIa-beta [6]): 33 fold
Kd (human Factor XIIa-beta [7]): 0.26 nM
koff (human Factor XIIa-beta [7]): 6.4e-05 s⁻¹
kon (human Factor XIIa-beta [7]): 240000 M⁻¹ s⁻¹
Kd (human Factor XIIa-beta [5]): 1.63 nM
B17: VR24 (antibody, V domains shown)
VH: B1 VH
VL: QSVLTQPPSASGTPGQRVTISCSGSSEMTVHHYVYWYQQLPGTAPKLLIYSNNQRPSGVPDRFSGSKSGTSASLAISGLRSEDEADYYCAAWDASLRGVFGGGTKLTVLG

% Inhibition, ratio FXIIa-alpha:Antibody 1:0.1 (human Factor XIIa-alpha): 39.4%
% Inhibition, ratio FXIIa-alpha:Antibody 1:0.2 (human Factor XIIa-alpha): 72.8%
% Inhibition, ratio FXIIa-alpha:Antibody 1:0.5 (human Factor XIIa-alpha): 100%
% Inhibition, ratio FXIIa-alpha:Antibody 1:1 (human Factor XIIa-alpha): 100%
% Inhibition, ratio FXIIa-alpha:Antibody 1:2 (human Factor XIIa-alpha): 100%
% Inhibition, ratio FXIIa-alpha:Antibody 1:5 (human Factor XIIa-alpha): 100%
% Inhibition, ratio FXIIa-alpha:Antibody 1:10 (human Factor XIIa-alpha): 100%
Fold affinity improvement (human Factor XIIa-beta [6]): 57 fold
Kd (human Factor XIIa-beta [7]): 0.15 nM
koff (human Factor XIIa-beta [7]): 2.5e-05 s⁻¹
kon (human Factor XIIa-beta [7]): 170000 M⁻¹ s⁻¹
Kd (human Factor XIIa-beta [5]): 1.56 nM
B10: VR115 (antibody, V domains shown)
VH: B1 VH with R52D, P53I, S54P, G55T, G56K, T57G
VL: B1 VL with N94A, Q95S, V96L, L98G, G99V

% Inhibition, ratio FXIIa-alpha:Antibody 1:0.1 (human Factor XIIa-alpha): 39.9%
% Inhibition, ratio FXIIa-alpha:Antibody 1:0.2 (human Factor XIIa-alpha): 68.7%
% Inhibition, ratio FXIIa-alpha:Antibody 1:0.5 (human Factor XIIa-alpha): 99.7%
% Inhibition, ratio FXIIa-alpha:Antibody 1:1 (human Factor XIIa-alpha): 100%
% Inhibition, ratio FXIIa-alpha:Antibody 1:2 (human Factor XIIa-alpha): 100%
% Inhibition, ratio FXIIa-alpha:Antibody 1:5 (human Factor XIIa-alpha): 100%
% Inhibition, ratio FXIIa-alpha:Antibody 1:10 (human Factor XIIa-alpha): 100%
Fold affinity improvement (human Factor XIIa-beta [6]): 51 fold
Kd (human Factor XIIa-beta [7]): 0.17 nM
koff (human Factor XIIa-beta [7]): 4.3e-05 s⁻¹
kon (human Factor XIIa-beta [7]): 250000 M⁻¹ s⁻¹
Kd (human Factor XIIa-beta [5]): 1.52 nM
B9: VR112 (antibody, V domains shown)
VH: B1 VH with R52N, P53V, S54P, G55V, G56Q, T57G
VL: B1 VL with N94A, Q95S, V96L, L98G, G99V

Fold affinity improvement (human Factor XIIa-beta [6]): 24 fold
Kd (human Factor XIIa-beta [7]): 0.36 nM
koff (human Factor XIIa-beta [7]): 5.9e-05 s⁻¹
kon (human Factor XIIa-beta [7]): 160000 M⁻¹ s⁻¹
Kd (human Factor XIIa-beta [5]): 1.31 nM
B11: VR119 (antibody, V domains shown)
VH: B1 VH with R52N, P53V, S54P, G55L, G56Y, T57G
VL: B1 VL with N94A, Q95S, V96L, L98G, G99V
